Values of other authors as cited in patent publication US7101894B2 (priority 2001, dated 2006).

Target: CMV US28 (Human cytomegalovirus, UniProt P69332)
Conditions: binding of Fractalkine to US28

CMV US28, sequence (P69332 whole entry): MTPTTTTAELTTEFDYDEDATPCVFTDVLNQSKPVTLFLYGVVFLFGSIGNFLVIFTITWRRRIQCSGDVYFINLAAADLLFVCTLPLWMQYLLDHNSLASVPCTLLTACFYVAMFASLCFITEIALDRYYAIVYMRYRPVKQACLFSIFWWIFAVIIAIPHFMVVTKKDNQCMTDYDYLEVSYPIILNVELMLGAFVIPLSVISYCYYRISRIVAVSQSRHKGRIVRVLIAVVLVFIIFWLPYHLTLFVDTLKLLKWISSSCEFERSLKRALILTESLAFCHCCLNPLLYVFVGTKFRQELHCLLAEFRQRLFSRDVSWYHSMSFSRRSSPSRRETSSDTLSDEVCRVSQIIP

B1: Fractalkine: the CX3C chemokine, binds US28; used 125I-labeled as radioligand (protein, UniProt P78423 25-397, looked up)
Fractalkine: QHHGVTKCNITCSKMTSKIPVALLIHYQQNQASCGKRAIILETRQHRLFCADPKEQWVKDAMQHLDRQAAALTRNGGTFEKQIGEVKPRTTPAAGGMDESVVLEPEATGESSSLEPTPSSQEAQRALGTSPELPTGVTGSSGTRLPPTPKAQDGGPVGTELFRVPPVSTAATWQSSAPHQPGPSLWAEAKTSEAPSTQDPSTQASTASSPAPEENAPSEGQRVWGQGQSPRPENSLEREEMGPVPAHTDAFQDWGPGSMAHVSVVPVSSEGTPSREPVASGSWTPKAEEPIHATMDPQRLGVLITPVPDAQAATRRQAVGLLAFLGLLFCLGVAMFTYQSLQGCPRKMAGEMAEGLRYIPRSCGSNSYVLVPV
modifications: 125I label
notes: used 125I-labeled as radioligand
- Ki: ~0.05 nM
